How the values were obtained:
[1] = molecular target: T1, human IL-17A (IL-17AA homodimer) (human, UniProt Q16552 20-155, limits assumed); experiment: cell-based or functional assay
[2] = molecular target: T2, human IL-17F (IL-17FF homodimer) (human, UniProt Q96PD4 31-163); experiment: cell-based or functional assay
T2 sequence (looked up): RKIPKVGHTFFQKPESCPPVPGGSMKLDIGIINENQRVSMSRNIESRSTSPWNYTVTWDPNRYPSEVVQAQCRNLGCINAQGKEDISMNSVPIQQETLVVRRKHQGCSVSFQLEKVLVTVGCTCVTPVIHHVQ

[3] = molecular target: T1, human IL-17A (IL-17AA homodimer); experiment: ELISA, cytokine coated on plate, binder titrated, HRP secondary antibody
[4] = molecular target: human TNFα (human, UniProt P01375 77-233); experiment: cell-based or functional assay
human TNFα, sequence (P01375 77-233 limits assumed): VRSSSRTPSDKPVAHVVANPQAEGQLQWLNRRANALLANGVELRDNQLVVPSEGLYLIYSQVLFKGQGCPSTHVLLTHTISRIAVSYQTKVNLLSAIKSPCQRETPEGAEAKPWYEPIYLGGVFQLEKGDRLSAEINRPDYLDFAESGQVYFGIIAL

T1 sequence (Q16552 20-155 limits assumed): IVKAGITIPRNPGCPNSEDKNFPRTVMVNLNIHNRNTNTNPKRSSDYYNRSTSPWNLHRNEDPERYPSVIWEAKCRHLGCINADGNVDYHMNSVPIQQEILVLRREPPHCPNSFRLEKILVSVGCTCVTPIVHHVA

B1: T1-T4-30 (Fc fusion)
chain: LRLLDHRAPVCSQPGLNCTVKNSDCLDDSWIHPRNLTPSSPKDLQIQLHFAHTQQGDLVPVAHIEWTLQTDASILYLEGAELSVLQLDTNERLCVRFEFLSKLRHHHRRWRFTFSHFVVDPGQEYEVTVHHLPKPIPDGDPNHQSKNFLVPDCEHPRMKVTTPCMSSALPWLNVSADGDNVHLVLNVSEEQHFGLSLYWNQVQGPPKPRWHKNLTGPQIITLNHTDLVPCLCIQVWPLEPDSVRTNICPFREDPRAHQNLWQAARLRLLTLQSWLLDAPCSLPAEAALCWRAPGGDPCQPLVPPLSWENVTVDKVLEFPLLKGHPNLCVQVNSSEKLQLQECLWADSLGPLKDDVLLLETRGPQDNRSLCALEPSGCTSLPSKASTRAARLGEYLLQDLQSGQCLQLWDDDLGALWACPMDKYIHKTGIEGRMDRNTGRGGEEKKKEKEKEEQEERETKTPECPSHTQPLGVFLFPPKPKDTLMISRTPEVTCVVVDVSQEDPEVQFNWYVDGVEVHNAKTKPREEQFNSTYRVVSVLTVLHQDWLNGKEYKCKVSNKGLPSSIEKTISKAKGQPREPQVYTLPPSQEEMTKNQVSLTCLVKGFYPSDIAVEWESNGQPENNYKTTPPVLDSDGSFFLYSRLTVDKSRWQEGNVFSCSVMHEALHNHYTQKSLSLSLGKGGGGSGGGGSGGGGSLELPAQVAFTPYAPEPGSTCRLREYYDQTAQMCCSKCSPGQHAKVFCTKTSDTVCDSCEDSTYTQLWNWVPECLSCSSRCSSDQVETQACTREQNRICTCRPGWYCALSKQEGCRLCAPLRKCRPGFGVARPGTETSDVVCKPCAPGTFSNTTSSTDICRPHQICNVVAIPGNASMDAVCTSTSPTRSMAPGAVHLPQPVSTRSQHTQPTPEPSTAPSTSFLLPMGPSPPAEGSTGD
For B1, the “IC50 (ng/mL) of hIL-17A, SEAP reporter assay in HEK-Blue IL-17 cells” value [1] was 23.7 ng/mL and the “IC50 (ng/mL) of hIL-17F, SEAP reporter assay in HEK-Blue IL-17 cells” value [2] was 1030 ng/mL.

B2: T1-T4-11 (Fc fusion)
chain: LRLLDHRAPVCSQPGLNCTVKNSDCLDDSWIHPRNLTPSSPKDLQIQLHFAHTQQGDLVPVAHIEWTLQTDASILYLEGAELSVLQLDTNERLCVRFEFLSKLRHHHRRWRFTFSHFVVDPGQEYEVTVHHLPKPIPDGDPNHQSKNFLVPDCEHPRMKVTTPCMSSALPWLNVSADGDNVHLVLNVSEEQHFGLSLYWNQVQGPPKPRWHKNLTGPQIITLNHTDLVPCLCIQVWPLEPDSVRTNICPFREDPRAHQNLWQAARLRLLTLQSWLLDAPCSLPAEAALCWRAPGGDPCQPLVPPLSWENVTVDKVLEFPLLKGHPNLCVQVNSSEKLQLQECLWADSLGPLKDDVLLLETRGPQDNRSLCALEPSGCTSLPSKASTRAARLGEYLLQDLQSGQCLQLWDDDLGALWACPMDKYIHKTGIEGRMDRNTGRGGEEKKKEKEKEEQEERETKTPECPSHTQPLGVFLFPPKPKDTLMISRTPEVTCVVVDVSQEDPEVQFNWYVDGVEVHNAKTKPREEQFNSTYRVVSVLTVLHQDWLNGKEYKCKVSNKGLPSSIEKTISKAKGQPREPQVYTLPPSQEEMTKNQVSLTCLVKGFYPSDIAVEWESNGQPENNYKTTPPVLDSDGSFFLYSRLTVDKSRWQEGNVFSCSVMHEALHNHYTQKSLSLSLGKGGGGSGGGGSGGGGSLELPAQVAFTPYAPEPGSTCRLREYYDQTAQMCCAKCPPGQHAKVFCTKTSDTVCDSCEDSTYTQLWNWVPECLSCGSRCSSDQVETQACTREQNRICTCRPGWYCALSKQEGCRLCAPLSKCRPGFGVARPGTETSDVVCKPCAPGTFSNTTSSTDICRPHQICSVVAIPGNASMDAVCTSTSPTRSMAPGAVHLPQPVSTRSQHTQPTPEPSTAPSTSFLLPMGPSPPAEGSTGD
notes: also called T1c-Fc-T4d; IL-17RA/RC-Fc-TNFR2
Work on B2 yielded an EC50 [3] of 0.0106 µg/mL.

B3: T1-T4-08 (Fc fusion)
chain: LRLLDHRAPVCSQPGLNCTVKNSDCLDDSWIHPRNLTPSSPKDLQIQLHFAHTQQGDLVPVAHIEWTLQTDASILYLEGAELSVLQLDTNERLCVRFEFLSKLRHHHRRWRFTFSHFVVDPGQEYEVTVHHLPKPIPDGDPNHQSKNFLVPDCEHPRMKVTTPCMSSALPWLNVSADGDNVHLVLNVSEEQHFGLSLYWNQVQGPPKPRWHKNLTGPQIITLNHTDLVPCLCIQVWPLEPDSVRTNICPFREDPRAHQNLWQAARLRLLTLQSWLLDAPCSLPAEAALCWRAPGGDPCQPLVPPLSWENVTVDKVLEFPLLKGHPNLCVQVNSSEKLQLQECLWADSLGPLKDDVLLLETRGPQDNRSLCALEPSGCTSLPSKASTRAARLGEYLLQDLQSGQCLQLWDDDLGALWACPMDKYIHKTGIEGRMDRNTGRGGEEKKKEKEKEEQEERETKTPECPSHTQPLGVFLFPPKPKDTLMISRTPEVTCVVVDVSQEDPEVQFNWYVDGVEVHNAKTKPREEQFNSTYRVVSVLTVLHQDWLNGKEYKCKVSNKGLPSSIEKTISKAKGQPREPQVYTLPPSQEEMTKNQVSLTCLVKGFYPSDIAVEWESNGQPENNYKTTPPVLDSDGSFFLYSRLTVDKSRWQEGNVFSCSVMHEALHNHYTQKSLSLSLGKGGGGSGGGGSGGGGSLELPAQVAFTPYAPEPGSTCRLREYYDQTAQMCCAKCSPGQHAKVFCTKTSDTVCDSCEDSTYTQLWNWVPECLSCGSRCSSDQVETQACTREQNRICTCRPGWYCALSKQEGCRLCAPLRKCRPGFGVARPGTETSDVVCKPCAPGTFSNTTSSTDICRPHQICNVVAIPGNASMDAVCTSTSPTRSMAPGAVHLPQPVSTRSQHTQPTPEPSTAPSTSFLLPMGPSPPAEGSTGD
notes: also called T1-T4-8; T1c-Fc-T4a
Work on B3 yielded an EC50 [3] of 0.0126 µg/mL.

B4: T1-T4-09 (Fc fusion)
chain: LRLLDHRAPVCSQPGLNCTVKNSDCLDDSWIHPRNLTPSSPKDLQIQLHFAHTQQGDLVPVAHIEWTLQTDASILYLEGAELSVLQLDTNERLCVRFEFLSKLRHHHRRWRFTFSHFVVDPGQEYEVTVHHLPKPIPDGDPNHQSKNFLVPDCEHPRMKVTTPCMSSALPWLNVSADGDNVHLVLNVSEEQHFGLSLYWNQVQGPPKPRWHKNLTGPQIITLNHTDLVPCLCIQVWPLEPDSVRTNICPFREDPRAHQNLWQAARLRLLTLQSWLLDAPCSLPAEAALCWRAPGGDPCQPLVPPLSWENVTVDKVLEFPLLKGHPNLCVQVNSSEKLQLQECLWADSLGPLKDDVLLLETRGPQDNRSLCALEPSGCTSLPSKASTRAARLGEYLLQDLQSGQCLQLWDDDLGALWACPMDKYIHKTGIEGRMDRNTGRGGEEKKKEKEKEEQEERETKTPECPSHTQPLGVFLFPPKPKDTLMISRTPEVTCVVVDVSQEDPEVQFNWYVDGVEVHNAKTKPREEQFNSTYRVVSVLTVLHQDWLNGKEYKCKVSNKGLPSSIEKTISKAKGQPREPQVYTLPPSQEEMTKNQVSLTCLVKGFYPSDIAVEWESNGQPENNYKTTPPVLDSDGSFFLYSRLTVDKSRWQEGNVFSCSVMHEALHNHYTQKSLSLSLGKGGGGSGGGGSGGGGSLELPAQVAFTPYAPEPGSTCRLREYYDQTAQMCCAKCPPGQHAKVFCTKTSDTVCDSCEDSTYTQLWNWVPECLSCGSRCSSDQVETQACTREQNRICTCRPGWYCALSKQEGCRLCAPLRKCRPGFGVARPGTETSDVVCKPCAPGTFSNTTSSTDICRPHQICNVVAIPGNASMDAVCTSTSPTRSMAPGAVHLPQPVSTRSQHTQPTPEPSTAPSTSFLLPMGPSPPAEGSTGD
notes: also called T1-T4-9; T1c-Fc-T4b
Binder B4 has an EC50 [3] of 0.0087 µg/mL.

B5: T1-T4-10 (Fc fusion)
chain: LRLLDHRAPVCSQPGLNCTVKNSDCLDDSWIHPRNLTPSSPKDLQIQLHFAHTQQGDLVPVAHIEWTLQTDASILYLEGAELSVLQLDTNERLCVRFEFLSKLRHHHRRWRFTFSHFVVDPGQEYEVTVHHLPKPIPDGDPNHQSKNFLVPDCEHPRMKVTTPCMSSALPWLNVSADGDNVHLVLNVSEEQHFGLSLYWNQVQGPPKPRWHKNLTGPQIITLNHTDLVPCLCIQVWPLEPDSVRTNICPFREDPRAHQNLWQAARLRLLTLQSWLLDAPCSLPAEAALCWRAPGGDPCQPLVPPLSWENVTVDKVLEFPLLKGHPNLCVQVNSSEKLQLQECLWADSLGPLKDDVLLLETRGPQDNRSLCALEPSGCTSLPSKASTRAARLGEYLLQDLQSGQCLQLWDDDLGALWACPMDKYIHKTGIEGRMDRNTGRGGEEKKKEKEKEEQEERETKTPECPSHTQPLGVFLFPPKPKDTLMISRTPEVTCVVVDVSQEDPEVQFNWYVDGVEVHNAKTKPREEQFNSTYRVVSVLTVLHQDWLNGKEYKCKVSNKGLPSSIEKTISKAKGQPREPQVYTLPPSQEEMTKNQVSLTCLVKGFYPSDIAVEWESNGQPENNYKTTPPVLDSDGSFFLYSRLTVDKSRWQEGNVFSCSVMHEALHNHYTQKSLSLSLGKGGGGSGGGGSGGGGSLELPAQVAFTPYAPEPGSTCRLREYYDQTAQMCCAKCPPGQHAKVFCTKTSDTVCDSCEDSTYTQLWNWVPECLSCGSRCSSDQVETQACTREQNRICTCRPGWYCALSKQEGCRLCAPLSKCRPGFGVARPGTETSDVVCKPCAPGTFSNTTSSTDICRPHQICNVVAIPGNASMDAVCTSTSPTRSMAPGAVHLPQPVSTRSQHTQPTPEPSTAPSTSFLLPMGPSPPAEGSTGD
notes: also called T1c-Fc-T4c; IL-17RA/RC-Fc-TNFR2
For B5, the EC50 [3] was 0.0106 µg/mL.

B6: T1-T4-12 (Fc fusion)
chain: LRLLDHRAPVCSQPGLNCTVKNSDCLDDSWIHPRNLTPSSPKDLQIQLHFAHTQQGDLVPVAHIEWTLQTDASILYLEGAELSVLQLDTNERLCVRFEFLSKLRHHHRRWRFTFSHFVVDPGQEYEVTVHHLPKPIPDGDPNHQSKNFLVPDCEHPRMKVTTPCMSSALPWLNVSADGDNVHLVLNVSEEQHFGLSLYWNQVQGPPKPRWHKNLTGPQIITLNHTDLVPCLCIQVWPLEPDSVRTNICPFREDPRAHQNLWQAARLRLLTLQSWLLDAPCSLPAEAALCWRAPGGDPCQPLVPPLSWENVTVDKVLEFPLLKGHPNLCVQVNSSEKLQLQECLWADSLGPLKDDVLLLETRGPQDNRSLCALEPSGCTSLPSKASTRAARLGEYLLQDLQSGQCLQLWDDDLGALWACPMDKYIHKTGIEGRMDRNTGRGGEEKKKEKEKEEQEERETKTPECPSHTQPLGVFLFPPKPKDTLMISRTPEVTCVVVDVSQEDPEVQFNWYVDGVEVHNAKTKPREEQFNSTYRVVSVLTVLHQDWLNGKEYKCKVSNKGLPSSIEKTISKAKGQPREPQVYTLPPSQEEMTKNQVSLTCLVKGFYPSDIAVEWESNGQPENNYKTTPPVLDSDGSFFLYSRLTVDKSRWQEGNVFSCSVMHEALHNHYTQKSLSLSLGKGGGGSGGGGSGGGGSLELPAQVAFTPYAPEPGSTCRLREYYDQTAQMCCAKCPPGQHAKVFCTKTSDTVCDSCEDSTYTQLWNWVPECLSCGSRCSSDQVETQACTREQNRICTCRPGWYCALSKQEGCRLCAPLSKCRPGFGVARPGTETSDVVCKPCAPGTFSNTTSSTDICRPHQICSVVAIPGNASMDAVCTSTSPTRSMAPGAVHLPQPVSTRSQHTQPTPGPSTAPSTSFLLPMGPSPPAEGSTGD
notes: also called T1c-Fc-T4e; IL-17RA/RC-Fc-TNFR2
In the case of B6, the “IC50 (ng/mL) of hIL-17A, SEAP reporter assay in HEK-Blue IL-17 cells” value [1] is reported as 19.9 ng/mL, the “IC50 (ng/mL) of hTNFα, SEAP reporter assay in HEK-Blue TNFα cells” value [4] is reported as 116 ng/mL and the EC50 [3] is reported as 0.00841 µg/mL.
